Assay results from publication PMC8229911.

Target: Lrp transcriptional regulator from Haloferax mediterranei (HFX_RS01210) (Haloferax mediterranei)
Test: SEC; Superose6 Increase 10/300 GL, 50 mM Tris-HCl pH 8.0, 150 mM NaCl; molecular mass estimated against standard proteins of 6.5 to 660 kDa in the same buffer

stoichiometry N: 4
Substance: Lrp transcriptional regulator from Haloferax mediterranei (HFX_RS01210) (natural protein)
